For 1 substance, stoichiometry N results are on record in publication PMC2141627.

This assay concerns the target laminin 5 (α3β3γ2) purified from SCC25 cell culture medium (human (endogenous in SCC25)) (UniProt Q16787). As to the kind of experiment: rotary shadowing electron microscopy.

“NC-1 domain of type VII collagen purified from human amnion (from UniProt Q02388 17-2944) (domain or fragment)”: the stoichiometry N – broadly, a count of units in the complex or per binding partner – was determined as 1.
